Data set [1] concerns the molecule itself. In words: small-angle neutron scattering (SANS); 5.3 mg/mL Cyt c′ in D2O, 20 mM phosphate buffer, pD 9.6; KWS-1 beam line; Rg and curve compared with those of the crystal dimer; MW ratio from I(0)/C against the pD 1.7 sample; dimer to monomers.
Data set [2] concerns the molecule itself. In words: small-angle neutron scattering (SANS); 5.5 mg/mL Cyt c′ in D2O, 20 mM phosphate buffer, pD 6.4; KWS-1 beam line; Rg and curve compared with those of the crystal dimer; MW ratio from I(0)/C against the pD 1.7 sample; dimer to monomers.

Several values for one entry are separate records, joined by “and”; a condition that tells them apart may be missing. Equal entries are not always repeated.

B1: Cytochrome c′ from Alcaligenes xylosoxidans NCIMB 11015 (natural protein, UniProt P00138 1-127, looked up)
chain: QFAKPEDAVKYRQSALTLMASHFGRMTPVVKGQAPYDAAQIKANVEVLKTLSALPWAAFGPGTEGGDARPEIWSDAASFKQKQQAFQDNIVKLSAAADAGDLDKLRAAFGDVGASCKACHDAYRKKK
modifications: heme prosthetic group embedded in the C-terminal region
notes: Cytochrome c′ (c-type cytochrome, four-α-helix bundle) of Alcaligenes xylosoxidans NCIMB 11015; helices A(Ala3-Lys31), B(Asp37-Phe59), C(Ala76-Asp98), D(Asp103-Arg124); His120 axial ligand; crystal structures PDB 4WGZ and 4WGY are of the same protein; also called Cyt c′; Cyt c'
Turning to B1, the “stoichiometry N” value in data set [1] is 1.9 and 1.8; in data set [2] it was 2.1 and 2.

These data come from paper PMC8774185, “Open-Bundle Structure as the Unfolding Intermediate of Cytochrome c′ Revealed by Small Angle Neutron Scattering” (Biomolecules, 2022).
